Results on 13 molecules are retold here after patent US20230322908A1 (AC IMMUNE, published 2023).

Numbering of substitutions follows the chain as printed. Numbers in names are those of the source.

Test [1] concerns the target T1, recombinant human full-length TDP-43 (TAR DNA-binding protein 43), soluble (human, UniProt Q13148 1-414).
T1 construct: Used on Luminex beads, coated on ELISA plates, and immobilized or injected in SPR; also called FL TDP-43; TDP-43 protein
Kind of test: SPR 8K, immobilized soluble TDP-43. On the procedure: The instrument was primed with running buffer PBS-P+ and flow cells (Fc) 1 and 2 of channels 1-8 were activated with a fresh solution of EDC/NHS (Amine Coupling Kit, 1:1 ratio of both reagents, GE Healthcare Life Sciences, BR-1006-33) at 10 µL/min for 420 sec. Soluble TDP-43 (Selvita) was diluted in sodium acetate pH 4.5 to a final concentration of 5 µg/mL and injected for 900 sec with a flow rate of 5 µL/min on Fc 2. All flow cells were quenched with 1 M ethanol amine (GE Healthcare Life Sciences, BR-1006-33), at 10 µL/min for 420 sec. Immobilization levels after ethanolamine quenching were 680 RU on all eight channels. Prior to analysis, two Startup cycles were run. Increasing mAbs concentrations were injected in single-cycle kinetics ranging from 1.2 to 100 nM, prepared from a 3-fold serial dilution in running buffer, with a contact time of 300 sec and a dissociation time of 900 sec at a flow rate of 30 µL/min. Each cycle was followed by one regeneration using 10 mM Glycine-HCl pH 1.7 with a contact time of 30 sec at 30 µL/min, followed by a stabilization period of 300 sec. Results obtained from single-cycle kinetics were double-referenced using the blank Fc 1 and buffer cycles and evaluated using Biacore 8 K evaluation software using the 1:1 kinetic fit model with RI and global Rmax. The following kinetic parameters were obtained: association rate constant (ka), dissociation rate constant (kd), affinity constant (KD) and saturation response (Rmax).

Test [2] addresses T2, TP-51 peptide (aa 352-414 of SEQ ID NO:1) (human).
T2 construct: Synthetic peptide (Pepscan)
T2 peptide: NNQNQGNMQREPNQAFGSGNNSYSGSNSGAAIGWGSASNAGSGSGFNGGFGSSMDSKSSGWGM
The experiment in a line: SPR 8K, mAb captured, TP-51 injected. On the procedure:
The instrument was primed with running buffer PBS-P+. Fc 1-2 of channels 1-8 (8 K) were activated with a fresh solution of EDC/NHS(Amine Coupling Kit, 1:1 ratio of both reagents, GE Healthcare Life Sciences, BR-1006-33) at 10 µL/min for 420 sec and goat anti-human antibody (GE Healthcare Life Sciences, 29234600) was immobilized at 25 µg/mL in 10 mM sodium acetate pH 5 for 420 sec. Next, all Fc were quenched with 1 M ethanol amine(GE Healthcare Life Sciences, BR-1006-33), for 420 sec. Any non-covalently bound antibodies were removed by two regenerations with 10 mM Glycine-HCl pH 1.7 for 30 sec. Immobilization levels were evaluated following ethanolamine quenching (10000 RU for all channels).
Each cycle started with non-covalent capture of humanized variants which were diluted in running buffer to a final concentration of 2 µg/mL and injected for 60 sec with a flow rate of 10 µL/min. TDP-43 mAbs were captured on channels 1-8, leaving Fc 1 as a blank Fc. Capture levels were evaluated following a 120 sec stabilization period after each mAb injection and ranged from 300-500 RU.
Injections of TP-51 peptide (Pepscan) were performed in single-cycle kinetics with increasing concentrations ranging from 1.2-100 nM prepared from serial 3-fold dilutions. Injections were performed with contact times of 300 sec/injection at a flow rate of 25 µL/min. A dissociation phase of 3600 sec followed the final injection. Sensor surface was regenerated by one injection of 10 mM Glycine-HCl pH 1.7 at a flow rate of 10 µL/min for 120 sec, followed by a stabilization period of 300 sec. Results obtained from single-cycle kinetics were double-referenced using the blank Fc 1 and buffer cycles and evaluated by Biacore 8 K evaluation software with 1:1 kinetic fit model with RI and global Rmax. The following kinetic parameters were obtained: association rate constant (ka), dissociation rate constant (kd), affinity constant (KD) and saturation response (Rmax).

Test [3] concerns the target T3, recombinant human aggregated full-length TDP-43 (human, UniProt Q13148 1-414).
T3 construct: also called aggregated TDP-43; aggregated FL TDP-43
The experiment in a line: SPR, immobilized aggregated TDP-43. On the procedure: (§1) Binding avidity to soluble or aggregated FL TDP-43 was evaluated by determing the dissociation constants (KD) using surface plasmon resonance (SPR; Biacore T200, GE Healthcare Life Sciences). Recombinant human soluble or aggregated FL TDP-43 were immobilized on a CM5 Series S sensor chip (GE Healthcare Life Sciences) by amine coupling. Soluble TDP-43 was immobilized at a concentration of 5 µg/ml in 10 mM sodium acetate (pH 4.5) with a flow rate of 5 µl/min for 420 seconds resulting in an immobilization level of 150 RU. Aggregated TDP-43 was immobilized at a concentration of 50 µg/ml in 10 mM sodium acetate (pH 4.5) with a flow rate of 5 µl/min for 840 seconds resulting in an immobilization level of 110 RU. Biotinylated TP-73 peptide (aa 181-190 of SEQ ID NO:1) was immobilized on a Series S Sensor Chip SA (GE Healthcare Life Sciences) at a concentration of 5 µg/ml in PBS-P⁺ with a flow rate of 5 µl/min for 30 seconds resulting in an immobilization level of 400 RU. […] The antibodies were injected at a flow rate of 50 µl/min for 90 seconds contact time and 700 seconds dissociation phase followed by three regenerations with 10 mM glycine-HCl pH 1.7. For the optimized SPR protocol the antibodies were diluted 3-fold starting from 300 nM and dilute down to 1.2 nM and injected for 300 seconds at 30 µl/min followed by 600 seconds dissociation. The surface was regenerated by one injection with 10 mM glycine-HCl pH 1.7. Results obtained from binding kinetics were double-referenced using a blank flow cell and a buffer cycle and were evaluated with a global 1:1 fitting model with RI. Avidities for 11 antibodies and two Fab fragments are depicted in Table 8. […] In addition, some antibodies show preferential binding to aggregated TDP-43 as compared with soluble TDP-43.

Test [4] concerns the target T1, recombinant human full-length TDP-43 …. Kind of test: SPR, immobilized soluble TDP-43. As to the method:
as §1
In general terms: In SPR one partner is held on a chip, and binding of the other changes the refractive index at the surface.

T3 sequence (Q13148 whole entry): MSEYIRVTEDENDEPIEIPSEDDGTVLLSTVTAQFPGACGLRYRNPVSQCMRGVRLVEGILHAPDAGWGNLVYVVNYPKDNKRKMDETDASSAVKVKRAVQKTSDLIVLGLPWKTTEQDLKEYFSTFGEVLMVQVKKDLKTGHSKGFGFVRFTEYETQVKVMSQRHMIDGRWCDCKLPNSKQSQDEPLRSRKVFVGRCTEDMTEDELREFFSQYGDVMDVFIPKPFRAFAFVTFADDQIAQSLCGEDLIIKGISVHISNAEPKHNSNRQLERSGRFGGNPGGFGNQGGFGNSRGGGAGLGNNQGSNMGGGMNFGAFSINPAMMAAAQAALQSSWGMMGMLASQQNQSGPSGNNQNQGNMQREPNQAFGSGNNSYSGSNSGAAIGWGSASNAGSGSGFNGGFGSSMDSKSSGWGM
T1 sequence (Q13148 whole entry): as above

B1: cACI-7069-633B12-Ab1 (human IgG4 S228P chimeric) (antibody, V domains shown)
VH: EVQLQQSGPELVKPGASVKISCKTSGFTFTEYSMHWVKQSHGKSLEWIGGINPNNGGTSYNQKFKGKATLTVDKSSSTAYMELRSLTSEDSAVYYCARESWGQGTTLTVSS
VL: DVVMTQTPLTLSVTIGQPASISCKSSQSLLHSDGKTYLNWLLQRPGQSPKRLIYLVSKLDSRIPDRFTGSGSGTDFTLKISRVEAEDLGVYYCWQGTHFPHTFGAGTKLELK
notes: Murine variable domains on a human IgG4 (S228P) constant domain and human kappa; also called chimeric antibody
By Kd is commonly meant the concentration at which binding is half-saturated. As a reminder, the koff is a measure of how fast the partners let go of each other. What is called kon is the rate constant with which the complex forms. Regarding B1, in test [1], the Kd was found to be 0.238 nM, the dissociation rate constant (koff) was 9.9e-06 s⁻¹ and the kon came out at 42000 M⁻¹ s⁻¹. Also, in test [2], binding was characterised by a dissociation constant (Kd) of 1.7 nM, the off-rate constant (koff) came to 0.00021 s⁻¹ and the kon is 130000 M⁻¹ s⁻¹.

B2: 642D12B4 Fab (Fab, V domains shown)
VH: EVQLQQSGAELVKPGASVRLSCTASGFNIKDPYMHWVRQRPKQGLEWIGRIDPADGNTKYDPKFQGKATLTADTSSNVAYLHLSSLTSEDTAVYYCARFYGSSHWYFDVWGAGTTVTVSS
VL: DIKMTQSPSSMYASLGERVTITCKASQDIKRYLSWYQQKPWKSPKILIYYATSLADGVPSRFSGTGSGQDYSLTISSLESDDVATYYCLQQGESPYTFGGGTKLEIK
notes: Fab fragment; also called Fab fragment of ACI-7069-642D12-Ab1
For the molecule B2, in test [3], the Kd turned out to be 21.8 nM, the koff stood at 0.00176 s⁻¹ and the kon turned out to be 94000 M⁻¹ s⁻¹. Besides, in test [4], the Kd came out at 21.8 nM, the off-rate (koff) worked out at 0.00267 s⁻¹ and the association rate constant (kon) turned out to be 128000 M⁻¹ s⁻¹.

B3: hACI-7069-633B12-Ab1_H19L14 (IgG4) (antibody, V domains shown)
VH: QVQLVQSGAEVKKPGASVKVSCKTSGFTFTEYSMHWVRQAPGQRLEWIGGINPGNAGTSYNQKFKGRVTITVDTSASTAYMELSSLRSEDTAVYYCARESWGQGTTVTVSS
VL: DVVMTQSPLSLPVTLGQPASISCKSSQSLLHSDAKTYLNWLQQRPGQSPRRLIYLVSKLDSGVPDRFSGSGSGTDFTLKISRVEAEDLGVYYCFQGTHFPHTFGQGTKLEIK
As to B3, in test [1], the Kd worked out at 1.01 nM, the koff came out at 3e-05 s⁻¹ and the on-rate (kon) is 30000 M⁻¹ s⁻¹. In test [2], the affinity, expressed as Kd, was 9.4 nM; the koff turned out to be 0.0011 s⁻¹; the kon stood at 120000 M⁻¹ s⁻¹.

B4: hACI-7069-633B12-Ab1_H19L18 (IgG4) (antibody, V domains shown)
VH: B3 VH
VL: B3 VL with G62R
Take B4: in test [1], the Kd was determined as 0.431 nM, the off-rate constant (koff) came out at 1.4e-05 s⁻¹ and the association rate constant (kon) is 33000 M⁻¹ s⁻¹. Moreover, in test [2], the Kd stood at 1.9 nM, the koff came to 0.00023 s⁻¹ and the kon is 120000 M⁻¹ s⁻¹.

B5: hACI-7069-633B12-Ab1_H17L14 (IgG4) (antibody, V domains shown)
VH: B3 VH with T24A, R38K, I48M
VL: B3 VL
Regarding B5, in test [1], the dissociation constant (Kd) is 1.34 nM, the dissociation rate constant (koff) was 4.2e-05 s⁻¹ and the kon is 31000 M⁻¹ s⁻¹. In test [2], this molecule had an equilibrium dissociation constant (Kd) of 9 nM, a koff of 0.0012 s⁻¹ and a kon of 130000 M⁻¹ s⁻¹.

B6: hACI-7069-633B12-Ab1_H20L18 (IgG4) (antibody, V domains shown)
VH: B3 VH with Q1E
VL: B3 VL with G62R
Regarding B6, in test [1], the Kd is 0.45 nM, the koff came to 1.4e-05 s⁻¹ and the kon is 32000 M⁻¹ s⁻¹. Besides, in test [2], the Kd is 2.1 nM, the dissociation rate constant (koff) was found to be 0.00021 s⁻¹ and the on-rate constant (kon) amounted to 97000 M⁻¹ s⁻¹.

B7: hACI-7069-633B12-Ab1_H20L19 (IgG4) (antibody, V domains shown)
VH: B3 VH with Q1E
VL: B3 VL with R50K, G62R
Take B7: in test [1], the Kd was 0.684 nM, the koff came out at 1.9e-05 s⁻¹ and the kon came out at 27000 M⁻¹ s⁻¹. Besides, in test [2], the dissociation constant (Kd) came out at 2.9 nM, the off-rate (koff) amounted to 0.00026 s⁻¹ and the kon was 90000 M⁻¹ s⁻¹.

B8: hACI-7069-633B12-Ab1_H20L14 (IgG4) (antibody, V domains shown)
VH: B3 VH with Q1E
VL: B3 VL
On to B8, for which, in test [1], the equilibrium dissociation constant (Kd) was 1.74 nM, the dissociation rate constant (koff) came to 4.4e-05 s⁻¹ and the on-rate constant (kon) was 25000 M⁻¹ s⁻¹. In test [2], this molecule had a Kd of 11.1 nM, a koff of 0.0014 s⁻¹ and a kon of 130000 M⁻¹ s⁻¹.

B9: hACI-7069-633B12-Ab1_H16L14 (IgG4) (antibody, V domains shown)
VH: B3 VH with Q1E, T24A, I48M
VL: B3 VL
In the case of B9, in test [1], the dissociation constant (Kd) is 0.605 nM, the off-rate (koff) is 3.3e-05 s⁻¹ and the kon was determined as 55000 M⁻¹ s⁻¹. In addition, in test [2], binding was characterised by a dissociation constant (Kd) of 9.9 nM, the koff was found to be 0.0013 s⁻¹ and the kon amounted to 140000 M⁻¹ s⁻¹.

B10: hACI-7069-633B12-Ab1_H15L14 (IgG4) (antibody, V domains shown)
VH: B3 VH with T24A, I48M
VL: B3 VL
As to B10, in test [1], the dissociation constant Kd amounted to 1.2 nM, the dissociation rate constant (koff) worked out at 3.5e-05 s⁻¹ and the on-rate constant (kon) came to 29000 M⁻¹ s⁻¹. Further, in test [2], the dissociation constant (Kd) was 8.3 nM, the koff was 0.00094 s⁻¹ and the association rate constant (kon) was 110000 M⁻¹ s⁻¹.

B11: hACI-7069-633B12-Ab1_H19L19 (IgG4) (antibody, V domains shown)
VH: B3 VH
VL: B3 VL with R50K, G62R
Consider B11, for which, in test [1], the Kd stood at 0.508 nM, the off-rate (koff) is 1.5e-05 s⁻¹ and the kon worked out at 29000 M⁻¹ s⁻¹. In addition, in test [2], binding was put at a Kd of 2.3 nM, the koff stood at 0.00026 s⁻¹ and the on-rate (kon) was determined as 110000 M⁻¹ s⁻¹.

B12: hACI-7069-633B12-Ab1_H19L17 (IgG4) (antibody, V domains shown)
VH: B3 VH
VL: B3 VL with Q42L
As to B12, in test [1], the Kd amounted to 1.38 nM, the off-rate constant (koff) came to 3.5e-05 s⁻¹ and the on-rate constant (kon) came to 26000 M⁻¹ s⁻¹. For the same molecule, in test [2], the equilibrium dissociation constant (Kd) was determined as 13.1 nM, the off-rate (koff) stood at 0.00093 s⁻¹ and the on-rate constant (kon) was 70000 M⁻¹ s⁻¹.

B13: ACI-7069-642A10-Ab1 (antibody, mouse IgG1, V domains shown)
VH: QVQLQQPGAELVKPGASVKLSCKASGYTFTKYWMHWVKQRPGQGLEWIGEINPSNGRTNYNEKFKSKATLTVDKSSSTAYMQLSSLTSEDSAVYYCARYMDYWGQGTSVTVSS
VL: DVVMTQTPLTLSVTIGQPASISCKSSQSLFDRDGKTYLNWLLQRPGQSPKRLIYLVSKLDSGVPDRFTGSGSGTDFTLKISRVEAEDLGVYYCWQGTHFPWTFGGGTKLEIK
notes: Mouse IgG1, kappa, from hybridoma; also called 642A10B11
Consider B13, for which, in test [3], the Kd was 4.64 nM, the dissociation rate constant (koff) was 0.00585 s⁻¹ and the association rate constant (kon) was 1.26e+06 M⁻¹ s⁻¹.
